Patent US20060040319A1, “Multiple sensor-containing active modified polypeptides, preparation and uses thereof” (priority 2000, published 2006)
Entries after “also recorded” stand apart in the source; their conditions may differ.

Experiments:
[1] = target: T1, full length recombinant c-Abl (Mus musculus, UniProt P00520); assay: Kinase assay: phosphorylation of Rh-(Crk-II)-Fl by full length c-Abl (FRET, western blot, native PAGE); type: biochemical
T1 construct: full length recombinant (Baculovirus/SF9) mouse c-Abl; made in house; host or cells: Baculovirus/SF9
Method: (§1) Purified Rh-(Crk-II)-Fl prepared as described in Example I was treated with either full length recombinant (Baculovirus/SF9) mouse c-Abl or a GST fusion of mouse c-Abl containing only the SH2 and kinase domains (expressed in E. coli BL21 essentially as described (19)). In a typical experiment, the appropriate c-Abl construct was incubated in reaction buffer (2 mM DTT, 0.2 mg/ml BSA, 10 mM Mg^2+, 50 mM Tris, pH 7.4, either with or without ATP (500 μM)) for 5 min at 30° C. before addition of Rh-(Crk-II)-Fl (final concentration=0.25 μM). In order to ensure that equal amounts of active c-Abl enzyme were added to each reaction, preliminary titration experiments were carried out using an optimized peptide substrate for c-Abl (EAIYAAPFAKKK (SEQ ID No:2) (20)). For peptide inhibition studies, Rh-(Crk-II)-Fl was pre-incubated for 30 min with a high affinity ligand for the N-SH3 domain of Crk, PPPALPPKRRR-NH2 (SEQ ID No:7) (21), such that the final concentration of ligand in the kinase assay was 12 μM. In all cases, aliquots of the reaction mixtures were removed at ˜1 min and 60 min, quenched with EDTA (final conc.=40 mM), and then analyzed by native-PAGE and/or Western blotting and fluorescence spectroscopy.
Western Blotting. Standard procedures were used to probe for tyrosine phosphorylation using a mouse monoclonal anti-phosphotyrosine primary antibody (PY20, Santa Cruz Biotechnology) and a HPO-conjugated goat anti-mouse polyclonal secondary antibody (Amersham Pharmacia).
Fluorescence Spectroscopy. Experiments were conducted at 18° C. in a stirred 0.5 cm-pathlength cell using a SPEX FL3-11C fluorimeter. Samples from the reactions (50 μl) were diluted into 2 mM DTT, 0.4 mg/mL BSA, 140 mM NaCl, 50 mM Tris, pH 7.4 buffer (450 μl) for analysis. Excitation was at 490 nm with a 2.5 nm slit and the fluorescence emission was monitored at 520 nm and 580 nm through a 4 nm slit. Purified Rh-(Crk-II)-Fl was assayed for its ability to biosense Crk-II phosphorylation by the c-Abl protein tyrosine kinase. As indicated previously, phosphorylation by c-Abl leads to an intramolecular association between a phosphotyrosine motif and the Crk-II SH2 domain, which could potentially be reported by the dual-labeled Crk-II derivative (FIG. 1). Rh-(Crk-II)-Fl was treated with full length recombinant c-Abl and aliquots of the reaction mixture were analyzed by fluorescence spectroscopy and western blotting at ˜1 min and 60 min time-points. […] In contrast, when ATP was included in the reaction mixture, a phosphorylation-dependent increase in the emission intensity ratio (a decrease in FRET) was consistently observed.

[2] = target: T2, GST fusion of mouse c-Abl containing only the SH2 and kinase domains (Mus musculus, UniProt P00520); assay: Kinase assay with truncated c-Abl containing only the SH2 and kinase domains; type: biochemical; conditions: truncated c-Abl (SH2 and kinase domains only), over 60 min
T2 construct: a GST fusion of mouse c-Abl containing only the SH2 and kinase domains; made in house; host or cells: E. coli BL21
T2 sequence (P00520 127-493): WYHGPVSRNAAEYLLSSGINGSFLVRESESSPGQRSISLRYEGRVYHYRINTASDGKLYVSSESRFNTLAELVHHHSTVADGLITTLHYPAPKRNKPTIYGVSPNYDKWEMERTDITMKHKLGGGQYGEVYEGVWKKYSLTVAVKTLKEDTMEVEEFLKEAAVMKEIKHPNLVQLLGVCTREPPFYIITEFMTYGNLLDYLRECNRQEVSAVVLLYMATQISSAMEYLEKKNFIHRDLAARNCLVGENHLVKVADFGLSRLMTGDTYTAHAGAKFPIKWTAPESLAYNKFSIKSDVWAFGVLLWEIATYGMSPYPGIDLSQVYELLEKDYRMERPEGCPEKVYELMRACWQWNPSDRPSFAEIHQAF
Method: as §1, with “For peptide inhibition studies, Rh-(Crk-II)-Fl was pre-incubated for 30 min with a high affinity ligand for the N-SH3 domain of Crk, PPPALPPKRRR-NH2 (SEQ ID No:7) (21), such that the final concentration of ligand in the kinase assay was 12 μM.” left out, “spectroscopy. […]” for “spectroscopy.”
Fluorescence Spectroscopy. […] Excitation was at 490 nm with a 2.5 nm slit and the fluorescence emission was monitored at 520 nm and 580 nm through a 4 nm slit. […] Rh-(Crk-II)-Fl was treated with full length recombinant c-Abl and aliquots of the reaction mixture were analyzed by fluorescence spectroscopy and western blotting at ˜1 min and 60 min time-points. […]

T1 sequence (P00520 whole entry): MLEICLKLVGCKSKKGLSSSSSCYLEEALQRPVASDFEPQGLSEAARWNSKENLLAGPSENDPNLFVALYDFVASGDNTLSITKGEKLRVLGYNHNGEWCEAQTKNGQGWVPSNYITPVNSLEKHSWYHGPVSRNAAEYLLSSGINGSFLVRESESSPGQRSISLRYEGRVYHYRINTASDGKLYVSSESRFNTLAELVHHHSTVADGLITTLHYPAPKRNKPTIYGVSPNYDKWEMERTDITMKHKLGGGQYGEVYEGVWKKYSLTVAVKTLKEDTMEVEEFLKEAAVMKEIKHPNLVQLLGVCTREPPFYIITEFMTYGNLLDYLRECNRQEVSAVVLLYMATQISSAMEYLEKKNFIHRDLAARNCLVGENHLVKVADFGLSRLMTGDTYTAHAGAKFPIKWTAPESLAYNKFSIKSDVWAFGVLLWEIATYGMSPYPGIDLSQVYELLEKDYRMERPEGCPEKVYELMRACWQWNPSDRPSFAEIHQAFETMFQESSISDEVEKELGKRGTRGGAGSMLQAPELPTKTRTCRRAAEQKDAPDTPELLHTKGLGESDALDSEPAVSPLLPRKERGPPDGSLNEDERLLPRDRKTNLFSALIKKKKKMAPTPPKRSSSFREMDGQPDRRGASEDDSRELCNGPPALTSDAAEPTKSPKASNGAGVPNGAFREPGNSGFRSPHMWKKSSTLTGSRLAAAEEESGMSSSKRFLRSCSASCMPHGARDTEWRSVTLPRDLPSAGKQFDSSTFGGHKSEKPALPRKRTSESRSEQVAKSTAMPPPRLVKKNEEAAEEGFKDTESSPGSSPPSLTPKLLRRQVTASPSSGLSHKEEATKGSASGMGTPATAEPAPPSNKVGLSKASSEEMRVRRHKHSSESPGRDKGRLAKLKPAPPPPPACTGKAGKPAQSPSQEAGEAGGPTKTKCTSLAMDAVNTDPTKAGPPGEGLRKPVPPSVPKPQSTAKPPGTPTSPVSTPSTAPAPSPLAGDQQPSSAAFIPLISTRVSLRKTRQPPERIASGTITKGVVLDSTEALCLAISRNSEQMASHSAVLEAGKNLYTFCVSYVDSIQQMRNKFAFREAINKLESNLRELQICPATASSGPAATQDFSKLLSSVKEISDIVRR

B1: Rh-(Crk-II)-Fl: semi-synthetic mouse Crk-II adapter protein with tetramethylrhodamine and fluorescein FRET pair at the N- and C-termini (protein)
chain: KRGCAGNFDSEERSSWYWGRLSRQEAVALLQGQRHGVFLVRDSSTSPGDYVLSVSENSRVSHYIINSSGPRPPVPPSPAQPPPGVSPSRLRIGDQEFDSLPALLEFYKIHYLDTTTLIEPVARSRQGSGVILRQEEAEYVRALFDFNGNDEEDLPFKKGDILRIRDKPEEQWWNAEDSEGKRGMIPVPYVEKYRPASASVSALIGGNQEGSHPQPLGGPEPGPYAQPSVNTPLPNLQNGPIYARVIQKRVPNAYDKTALALEVGELVKVTKINVSGQWEGECNGKRGHFPFTHVRLLDQQNPDEDFSGCGXGLEVLFQ
modifications: not fully specified; tetramethylrhodamine N-terminal, fluorescein C-terminal; Protein Kinase Target
notes: semi-synthetic mouse Crk-II adapter protein with tetramethylrhodamine and fluorescein FRET pair at the N- and C-termini
For B1, the “change in FRET” value ([1]; absence of ATP) was “essentially no change in FRET”, the “phosphorylation detected with anti-phosphotyrosine monoclonal antibody (western)” value ([1]; absence of ATP) was “no Rh-(Crk-II)-Fl phosphorylation could be detected” and the “extent of phosphorylation by native PAGE mobility” value ([1]; with ATP, after 1 h) was “completely phosphorylated”. The “decrease in FRET (increase in Fl:Rh emission intensity ratio)” value ([1]; with ATP, after 60 min) was ~3% and the “phosphorylation by fluorescence and western blotting analysis” value [2] was “did not lead to any detectable phosphorylation; also recorded: complete lack of phosphorylation”.
